Results published in paper PMC13395435.
Values joined by “and” are separate entries in the source; they are usually repeats but may differ in a detail not shown here. Equal values may be shown once.

Experiments:
[1] = target: OsHPP09-HMA (rice); experiment: ITC
[2] = target: OsHIPP21-HMA (rice); experiment: ITC
[3] = target: OsHPP10-HMA (rice); experiment: ITC
[4] = target: OsHPP11-HMA (rice); experiment: ITC
[5] = target: 3xHA-NLuc-dSP-AVR-Pia (UniProt B9WZW9); experiment: split luciferase complementation assay; conditions: parent: est. 3400; read off a plot
[6] = target: recombinant OsHPP10-HMA (rice); experiment: ITC
[7] = target: recombinant OsHPP09-HMA (rice); experiment: ITC
[8] = target: recombinant OsHIPP21-HMA (rice); experiment: ITC
[9] = target: recombinant OsHPP11-HMA (rice); experiment: ITC
[10] = target: recombinant OsHPP09-HMA (rice); experiment: NMR titration

AVR-Pia (natural protein)
Kd [1]: 125 nM and 185 nM | Kd [2]: 1970 nM and 2330 nM | Kd [3]: 6510 nM and 7470 nM | Kd [4]: 925 nM and 929 nM

3xFlag-CLuc-OsHPP09 full-length K19W
response [5]: 1500

recombinant AVR-Pia (from UniProt B9WZW9 1-85) (natural protein)
Kd [6]: 5260 nM | Kd [7]: 115 nM | Kd [8]: 1290 nM | Kd [9]: 772 nM | Kd [10]: < 100 nM

3xFlag-CLuc-OsHPP09 full-length A37W
response [5]: 1300

3xFlag-CLuc-OsHPP09 full-length K19A
response [5]: 1800

3xFlag-CLuc-OsHPP09 full-length D33A
response [5]: 2800

3xFlag-CLuc-OsHPP09 full-length Q20A
response [5]: 3100

3xFlag-CLuc-OsHPP09 full-length D33H
response [5]: 2600

3xFlag-CLuc-OsHPP09 full-length D33R
response [5]: 2000
